Molecular target: isolated C-terminal domain of FusB (Pectobacterium carotovorum LMG2410)
Experiment: ITC; MicroCal iTC200, 25°C, 10 mM Tris-HCl (pH 7.5)-150 mM NaCl; titrant (FusANTR-GFP, GFP or FerSp) injected in 2 μl steps into FusBCTD, FusBCTD R176K/R177K or TonBCTD in the cell

Substance	Kd
N-terminal region of FusA (residues 21 to 66) fused to green fluorescent protein (from UniProt C6DG80 21-66) (domain or fragment)	57 µM
spinach ferredoxin (from UniProt P00221 51-147) (natural protein)	8.7 µM

Source: publication PMC7593965
